Columns and labels:
Experiment in all cases: flow cytometry, HEK293 cells transiently co-transfected with FZD expression vector and GFP
[1] = biological target: T1, human FZD10 expressed on transfected HEK293 cells (human, UniProt Q9ULW2 21-581)
T1 sequence: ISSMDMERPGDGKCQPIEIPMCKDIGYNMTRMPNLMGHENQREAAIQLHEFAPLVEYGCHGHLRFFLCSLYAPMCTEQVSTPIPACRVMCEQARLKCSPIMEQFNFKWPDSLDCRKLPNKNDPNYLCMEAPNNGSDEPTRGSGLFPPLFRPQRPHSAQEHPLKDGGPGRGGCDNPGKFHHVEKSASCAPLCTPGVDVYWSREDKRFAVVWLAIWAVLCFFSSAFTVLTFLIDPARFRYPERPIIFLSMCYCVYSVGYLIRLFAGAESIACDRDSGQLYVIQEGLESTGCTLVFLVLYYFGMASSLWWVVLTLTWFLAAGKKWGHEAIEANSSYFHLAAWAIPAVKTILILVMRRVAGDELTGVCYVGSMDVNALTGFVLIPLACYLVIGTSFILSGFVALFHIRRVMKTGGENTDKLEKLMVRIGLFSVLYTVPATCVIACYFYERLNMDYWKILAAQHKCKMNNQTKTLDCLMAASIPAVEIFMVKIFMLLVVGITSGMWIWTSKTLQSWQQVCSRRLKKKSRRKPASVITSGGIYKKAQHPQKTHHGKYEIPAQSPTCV
Protocol: (§1) To measure antibody binding to FZD by flow cytometry HEK293 cells were co-transfected with FZD expression vectors and the transfection marker GFP. Twenty-four to forty-eight hours post-transfection, cells were collected in suspension and incubated on ice with anti-FZD antibodies (10 μg/ml unless otherwise indicated) or control IgG to detect background antibody binding. The cells were washed and primary antibodies detected with Fc domain-specific secondary antibodies conjugated to a fluorescent chromophore (e.g. phycoerythrin conjugated anti-human IgG). Labeled cells were then analyzed by flow cytometry to identify anti-FZD antibodies that specifically recognize cell surface expression of FZD protein. Monoclonal antibodies 18R5 and 18R8 recognized FZD on transfected cells. As shown in FIG. 1 and FIG. 2, both 18R8 and 18R5 bind to multiple FZD including FZD1, FZD2, FZD5, FZD7, and FZD8. To examine the relative ability of 18R8 and 18R5 to bind to each FZD protein, titration analysis was conducted wherein the amount of antibody in the binding reaction was varied (FIG. 2).

[2] = biological target: T2, human FZD3 expressed on transfected HEK293 cells (human, UniProt Q9NPG1 23-666)
T2 sequence: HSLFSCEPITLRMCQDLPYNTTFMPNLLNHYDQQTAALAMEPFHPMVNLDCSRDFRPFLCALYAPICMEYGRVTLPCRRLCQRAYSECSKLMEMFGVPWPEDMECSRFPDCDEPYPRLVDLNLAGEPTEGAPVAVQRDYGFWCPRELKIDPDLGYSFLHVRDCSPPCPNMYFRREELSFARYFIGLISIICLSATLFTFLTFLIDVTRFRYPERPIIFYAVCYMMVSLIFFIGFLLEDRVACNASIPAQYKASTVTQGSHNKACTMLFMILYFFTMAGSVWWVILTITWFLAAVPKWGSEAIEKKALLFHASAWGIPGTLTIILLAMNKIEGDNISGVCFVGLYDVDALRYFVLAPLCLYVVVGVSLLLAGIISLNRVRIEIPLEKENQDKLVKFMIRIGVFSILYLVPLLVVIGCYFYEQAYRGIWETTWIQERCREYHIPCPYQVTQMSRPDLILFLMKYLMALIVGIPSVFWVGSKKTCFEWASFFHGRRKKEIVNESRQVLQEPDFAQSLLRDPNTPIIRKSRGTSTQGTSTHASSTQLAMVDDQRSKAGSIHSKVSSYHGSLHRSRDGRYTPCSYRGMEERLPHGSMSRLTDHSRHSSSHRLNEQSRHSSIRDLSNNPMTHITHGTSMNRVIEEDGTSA
Protocol: as §1

[3] = biological target: T3, human FZD4 expressed on transfected HEK293 cells (human, UniProt Q9ULV1 37-537)
T3 sequence: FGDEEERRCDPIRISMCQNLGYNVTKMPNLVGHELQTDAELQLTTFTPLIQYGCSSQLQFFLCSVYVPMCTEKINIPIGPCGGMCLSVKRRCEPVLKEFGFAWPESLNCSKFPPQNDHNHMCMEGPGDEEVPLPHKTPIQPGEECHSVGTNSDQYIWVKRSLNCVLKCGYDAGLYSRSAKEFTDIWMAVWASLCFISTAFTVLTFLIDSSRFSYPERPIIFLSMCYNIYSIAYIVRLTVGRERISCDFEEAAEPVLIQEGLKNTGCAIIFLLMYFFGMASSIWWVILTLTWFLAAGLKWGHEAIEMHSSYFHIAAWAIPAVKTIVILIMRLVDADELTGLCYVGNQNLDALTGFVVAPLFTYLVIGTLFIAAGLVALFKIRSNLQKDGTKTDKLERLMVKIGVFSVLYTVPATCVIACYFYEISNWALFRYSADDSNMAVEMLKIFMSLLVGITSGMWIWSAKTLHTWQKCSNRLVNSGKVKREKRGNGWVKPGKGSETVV
Protocol: as §1

Measured: binding result

B1: 18R8 IgG antibody (human IgG2, lambda) (antibody, V domains shown)
VH: EVQLVESGGGLVQPGGSLRLSCAASGFTFSHYTLSWVRQAPGKGLEWVSVISGDGSYTYYADSVKGRFTISSDNSKNTLYLQMNSLRAEDTAVYYCARNFIKYVFANWGQGTLVTVSS
VL: DIELTQPPSVSVAPGQTARISCSGDKLGKKYASWYQQKPGQAPVLVIYEKDNRPSGIPERFSGSNSGNTATLTISGTQAEDEADYYCSSFAGNSLEVFGGGTKLTVLG
notes: Expressed in CHO cells, protein A purified; also called 18R8 IgG2 antibody; anti-FZD antibody 18R8
no binding (tested: 10 ug/ml): all assays above
